Reference: patent US20080227698A1, “OLIGOPEPTIDES FOR TREATMENT OF OSTEOPOROSIS AND OTHER BONE DISEASES AND METHODS THEREOF” (Washington University, priority 2005, published 2008)

Biological target: LRP6 (Homo sapiens, UniProt O75581)
Test: ^125I-RAP binding to LRP6-transduced HT1080 cells and control cells
Set-up: plasmid pCS-Myc-hLRP6 containing the full-length human LRP6 cDNA; HA; expressed in transfected cells; host or cells: human HT1080 cells, stably transduced (pLNCX2 retroviral vector)
Experimental: Cells (2×10^5) were seeded into 12-well dishes 1 day prior to assay. Ligand-binding buffer (minimal Eagle's medium containing 0.6% BSA with a different concentration of radioligand, 0.6 ml/well) was added to cell monolayers, in the absence or the presence of 500 nM unlabeled RAP or 500 nM unlabeled Mesd, followed with incubation for 0-4 hours at 4° C. Thereafter, overlying buffer containing unbound ligand was removed, and cell monolayers were washed and lysed in low-SDS lysis buffer (62.5 mM Tris-HCl pH 6.8, 0.2% SDS, 10% v/glycerol) and counted.
Receptor-associated protein (RAP) binds with high affinity to LRP, megalin, VLDLR and apoER2, and with a lower affinity to the LDLR (Bu, G., Int. Rev. Cytol. 209, 79-116. 2001). To determine whether RAP and Mesd bind to identical, overlapping, or different sites on the receptors, binding and competition analysis of these two chaperones with HT1080 cells stably expressing LRP6 was performed.
In FIG. 8A, binding of ^125I-RAP (5 nM) to LRP6-transduced HT1080 cells and the control cells was carried out for 4 hours at 4° C. in the absence (total) or presence of 500 nM RAP, or 500 nM Mesd. In FIG. 8B, binding of ^125I-Mesd (5 nM) to LRP6-transduced HT1080 cells was carried out for 2 hours at 4° C. in the absence (total) or presence of various concentrations of RAP or 500 nM Mesd. (C) LRP6-mediated ^125I-Mesd (5 nM) degradation was carried out for 4 hours at 37° C. in the absence or presence of 500 nM Mesd or 500 nM RAP. Values are the means of triple determinations with the s.d. indicated by error bars.

Sequence of LRP6 (O75581 20-1613): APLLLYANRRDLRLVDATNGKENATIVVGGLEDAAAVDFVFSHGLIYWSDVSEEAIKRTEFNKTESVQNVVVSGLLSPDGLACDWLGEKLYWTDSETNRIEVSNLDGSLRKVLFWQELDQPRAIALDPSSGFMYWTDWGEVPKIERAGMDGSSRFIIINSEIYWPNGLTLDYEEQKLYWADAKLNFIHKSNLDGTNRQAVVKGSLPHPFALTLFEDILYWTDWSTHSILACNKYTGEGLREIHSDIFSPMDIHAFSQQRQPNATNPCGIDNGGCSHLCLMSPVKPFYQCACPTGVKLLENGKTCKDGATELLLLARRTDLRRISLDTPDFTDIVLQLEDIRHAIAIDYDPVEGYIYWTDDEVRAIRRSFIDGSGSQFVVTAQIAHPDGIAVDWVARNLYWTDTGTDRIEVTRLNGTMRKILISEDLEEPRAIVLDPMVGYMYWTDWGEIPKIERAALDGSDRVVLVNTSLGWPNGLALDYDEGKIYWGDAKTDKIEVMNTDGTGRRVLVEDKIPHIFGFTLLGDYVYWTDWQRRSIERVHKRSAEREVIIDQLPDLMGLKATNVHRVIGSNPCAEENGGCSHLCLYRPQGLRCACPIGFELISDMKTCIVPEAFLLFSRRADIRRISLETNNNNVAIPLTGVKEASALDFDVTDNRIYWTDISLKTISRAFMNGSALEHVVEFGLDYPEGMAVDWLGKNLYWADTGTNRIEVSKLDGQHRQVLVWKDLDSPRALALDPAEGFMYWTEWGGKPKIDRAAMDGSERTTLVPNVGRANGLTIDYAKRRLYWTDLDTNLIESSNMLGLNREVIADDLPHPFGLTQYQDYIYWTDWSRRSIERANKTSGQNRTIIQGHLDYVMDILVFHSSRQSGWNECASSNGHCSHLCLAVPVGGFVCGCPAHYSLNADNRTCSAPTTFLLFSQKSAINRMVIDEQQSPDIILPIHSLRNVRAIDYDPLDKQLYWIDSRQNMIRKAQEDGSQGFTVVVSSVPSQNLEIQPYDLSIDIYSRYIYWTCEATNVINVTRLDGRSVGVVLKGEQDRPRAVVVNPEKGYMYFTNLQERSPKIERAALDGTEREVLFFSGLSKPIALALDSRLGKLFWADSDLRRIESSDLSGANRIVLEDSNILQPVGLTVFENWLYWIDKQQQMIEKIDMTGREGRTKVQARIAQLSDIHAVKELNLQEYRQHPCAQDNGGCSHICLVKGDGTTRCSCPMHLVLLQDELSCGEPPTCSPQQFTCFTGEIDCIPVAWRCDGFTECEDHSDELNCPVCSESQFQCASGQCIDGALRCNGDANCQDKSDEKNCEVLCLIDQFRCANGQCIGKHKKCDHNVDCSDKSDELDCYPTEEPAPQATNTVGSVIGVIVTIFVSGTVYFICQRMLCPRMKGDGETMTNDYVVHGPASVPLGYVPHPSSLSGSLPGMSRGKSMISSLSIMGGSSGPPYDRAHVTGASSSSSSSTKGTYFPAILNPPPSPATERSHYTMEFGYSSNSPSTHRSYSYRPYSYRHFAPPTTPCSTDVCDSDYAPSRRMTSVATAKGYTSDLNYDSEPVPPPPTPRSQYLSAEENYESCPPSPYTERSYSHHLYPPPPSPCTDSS

B1: Mesd: recombinant wild-type mouse Mesd, polyhistidine tail at the N-terminus, lacks the signal peptide, expressed in E. coli (protein)
chain: ADTPGEATPPPRKKKDIRDYNDADMARLLEQWEKDDDIEEGDLPEHKRPSAPIDFSKLDPGKPESILKMTKKGKTLMMFVTVSGNPTEKETEEITSLWQGSLFNANYDVQRFIVGSDRAIFMLRDGSYAWEIKDFLVSQDRCAEVTLEGQMYPGKGGGSKEKNKTKPEKAKKKEGDRKPRASKEDNRAGSRREDL
modifications: left off: small tags and cut ends
notes: recombinant wild-type mouse Mesd, polyhistidine tail at the N-terminus, lacks the signal peptide, expressed in E. coli
Question: Which “Effect of excess unlabeled competitor on ^125I-RAP binding to control cells” value (500 nM competitor, control cells expressing vector alone, 4° C.) does the source give for B1 here?
Answer: not

Question: What about the “Effect on the LRP6-dependent increase of ^125I-RAP binding” value (excess unlabeled Mesd (500 nM), 4 hours at 4° C.) of the same molecule?
Answer: abolished
